In patent US20240190992A1 (UNIVERSITY PUBLIC CORPORATION OSAKA, published 2024):

How the values were obtained:
[1] = biological target: T1, mouse EpCAM (mouse, UniProt Q99JW5 24-315); test: living cell immunostaining of KMC07 co-cultured with mouse PA6 cells
T1 construct: whole, on cells; also called EpCAM on the mouse fibroblast cell line PA6
T1 sequence (looked up): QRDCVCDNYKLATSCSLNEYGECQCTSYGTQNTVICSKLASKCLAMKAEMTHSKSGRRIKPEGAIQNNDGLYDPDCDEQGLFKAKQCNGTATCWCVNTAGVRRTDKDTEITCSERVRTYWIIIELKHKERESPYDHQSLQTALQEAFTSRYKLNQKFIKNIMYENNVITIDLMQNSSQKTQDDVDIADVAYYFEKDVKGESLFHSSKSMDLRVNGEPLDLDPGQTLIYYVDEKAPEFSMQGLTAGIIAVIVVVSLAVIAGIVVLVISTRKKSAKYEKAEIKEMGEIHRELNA
Source text: Since it was considered that EpCAM was so specially modified with KMC07 that its expression pattern was changed, expression of EpCAM was confirmed using alive or fixed Triton X-100-treated KMC07 by immunostaining. At this time, the anti-KMC07 antibody 1F9D4 and a commercially available EpCAM antibody were used as primary antibodies. When KMC07 was immunostained as living cells, signals were obtained on the cell membrane of KMC07 and the cell membrane of PA6 with the anti-EpCAM antibody (indicated by the arrow in FIG. 12). The staining pattern of KMC07 was similar to that with 1F9D4. Since the anti-EpCAM antibody is known to cross human, mouse and rat EpCAMs, it is considered that the anti-EpCAM antibody also reacted to the mouse fibroblast cell line PA6.

[2] = biological target: T2, EpCAM (epithelial cell adhesion molecule) (human, UniProt P16422 24-314); test: antibody affinity column on KMC07 whole cell extract, silver staining, mass analysis of the eluted band
T2 construct: whole, on cells; also called human EpCAM
T2 sequence (looked up): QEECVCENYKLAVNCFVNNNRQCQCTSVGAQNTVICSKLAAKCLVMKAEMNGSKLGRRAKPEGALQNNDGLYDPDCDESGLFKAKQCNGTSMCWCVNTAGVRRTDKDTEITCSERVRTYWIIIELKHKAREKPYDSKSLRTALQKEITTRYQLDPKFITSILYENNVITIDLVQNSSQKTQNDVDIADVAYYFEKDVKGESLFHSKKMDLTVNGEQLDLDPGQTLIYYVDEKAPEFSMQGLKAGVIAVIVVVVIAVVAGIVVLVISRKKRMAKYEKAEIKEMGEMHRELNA
Source text: To an affinity column, 5 clones of the anti-KMC07 antibody were bound and the KMC07 whole cell extract was flown to react the antibody with the antigen. Thereafter, the antibody was eluted and evaluated by silver staining. […] Among them, the broad band of 75 to 100 kDa (mark 4 in the figure) detected with 1B4G4 was similar to that in FIG. 10, and thus considered to be promising as a candidate antigen.

B1: 1F9D4 (antibody III) (antibody, IgG2b, V domains shown)
VH: EVQLVESGGGLVQPGRSLKLSCAASGFTFSDYNMAWVRQAPKKGLEWVATINYDGISTYYRDSVKGRFTISRDNAKSTLYLQMDSLRSEDTATYYCARHSYVYYALGVPFAYWGQGTLVTVSS
VL: DIQMTQSPSLLSASVGDRVTINCKASQNINKYLNWYQQKLGEAPKLLIYNTNSLQTGIPSRFSGSGSGTDYTLTISSLQPEDFGTYFCFQHNSWPLTFGSGTKLEIK
notes: also called IF9D4; anti-KMC07 antibody 1F9D4
**Q.** Does B1 bind [1]?
**A.** no binding

**Q.** Does B1 bind [2]?
**A.** binds
